Drawing on patent US20160068595A1, this text covers Kd, koff and kon for one molecule.

The target of assay [1] is human IL-20 (interleukin-20), recombinant (human) (UniProt Q9NYY1). Nature of the assay: binding kinetics of CDR mutants; method not named.
Assay [2] shares this target. Nature of the assay: SPR, BIAcore T100; antibody captured on anti-human IgG CM5 chip, IL-20 as analyte, 1:1 model. For orientation: In SPR one partner is held on a chip, and binding of the other changes the refractive index at the surface.

human IL-20 (interleukin-20), recombinant (human), sequence (Q9NYY1 25-176 limits assumed): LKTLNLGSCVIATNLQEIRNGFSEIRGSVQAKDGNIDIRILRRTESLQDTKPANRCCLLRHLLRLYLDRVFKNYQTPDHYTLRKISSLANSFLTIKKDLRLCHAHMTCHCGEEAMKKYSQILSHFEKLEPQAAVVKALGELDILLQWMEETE

B1: HH12 humanized anti-IL-20 antibody (antibody, V domains shown)
VH: EVQLQESGGGLVQPGGSLRLSCAASGFTFSDAWMDWVRQAPGKGLEWVGEIRSKANNYATYFAESVKGRFTISRDDSKNSLYLQMNSLKTEDTGVYYCTKLSLRYWFFDVWGQGTLVTVSS
VL: DIQMTQSPLSLSVTPGQPASISCKSSQSLLDSDGKTYLNWYQQKPGQSPQLLIYLVSKLDSGVPDRFSGSGSGTDFTLKISRVEAEDVGVYYCWQSTHFPWTFGQGTKVEIKR
Consider B1, for which, in assay [1], the Kd (in general, the free concentration of one partner at which half of the binding sites on the other are occupied at equilibrium, for simple one-to-one binding) came to 2.68 nM; the dissociation rate constant (koff) – broadly, the first-order rate constant of dissociation – worked out at 0.00358 s⁻¹; the kon (commonly the second-order rate constant of association) was determined as 1.34e+06 M⁻¹ s⁻¹. In assay [2], the Kd was 2.68 nM, the koff worked out at 0.00358 s⁻¹ and the kon worked out at 1.34e+06 M⁻¹ s⁻¹.
